Experimental data from patent US20120064078A1.

Molecular target: intracellular Hsp90α (human) (human) (UniProt P07900)
Experiment: cell-based or functional assay

- Thr90 phosphorylated Hsp90α (pT90-Hsp90α) level in MCF-7 cells on overexpression of human PP5 (fold of control): 0.55
- Thr90 phosphorylated Hsp90α (pT90-Hsp90α) level in MCF-7 cells on siRNA knock-down of human PP5 (fold of control): 1.58
Substance: human PP5 in MCF-7 cells (overexpressed from pcDNA3.1/Myc-His(-) or endogenous, knocked down by siRNA) (from UniProt P53041 2-499)
